Values of other authors, collected in article PMC7772776.

Assays:
Cys46 = Cys46 (UniProt position 47, DFTFVCPTELG)
Cys29 = Cys29 (UniProt position 108, GSCGSCWAFGA)
Cys72 = Cys72 (UniProt position 72, VFGMGCFWGAE)
Cys283 [1] = biological target: Cys283 (UniProt position 283, GYVLTCPSNLG)
Cys283 [2] = biological target: Cys283 (UniProt position 283, GYVLTCPANLG)
Cys125 = Cys125 (UniProt position 126, PGDFGCDAQGA)
Cys124 = Cys124 (UniProt position 125, HPGDFCADAQG)
Cys145 = Cys145 (UniProt position 145, PILIPCHRVVC)
Cys25 [3] = biological target: Cys25 (UniProt position 158, GSCGSCWAFSA)
Cys25 [4] = biological target: Cys25 (UniProt position 157, GSCGSCWAFSA)
Cys88 = Cys88 (UniProt position 88, ADGSICLDILQ)
Cys87 = Cys87 (UniProt position 87, RLGRICLDVLK)
Cys102 = Cys102 (UniProt position 102, KFLTPCYHPNV)

Alkyl hydroperoxide reductase C (AhpC) (Salmonella (article gives genus only; Salmonella typhimurium inferred))
pKa (Cys46): 5.9

Cathepsin B (Rattus norvegicus)
pKa (Cys29): 3.6

Methionine sulfoxide reductase A (MmsrA) (Mus musculus)
pKa (Cys72): 7.2

Methionine sulfoxide reductase A E115Q (MmsrA E115Q) (Mus musculus; E115Q)
pKa (Cys72): 8.2

Muscle creatine kinase (HMCK) (Homo sapiens)
pKa (Cys283 [1]): 5.6

Muscle creatine kinase S285A (HMCK S285A) (Homo sapiens; S285A)
pKa (Cys283 [2]): 6.7

Myoglobin A125C (Mb A125C) (Physeter macrocephalus (sperm whale); A125C)
pKa (Cys125): 8.4

Myoglobin G124C (Mb G124C) (Physeter macrocephalus (sperm whale); G124C)
pKa (Cys124): 6.5

O6-alkylguanine-DNA alkyltransferase (AGT) (Homo sapiens)
pKa (Cys145): 5.3

Papain (papaya proteinase I) (Carica papaya)
pKa (Cys25 [3]): 3.3

Papaya protease omega (caricain) (Carica papaya)
pKa (Cys25 [4]): 2.9

Ubiquitin-conjugating enzyme E2 B (Ubc2b; 'Ubc2' in Table 1) (Homo sapiens)
pKa (Cys88): 10.2

Ubiquitin-conjugating enzyme Ubc13 (Saccharomyces cerevisiae)
pKa (Cys87): 11.1

Ubiquitin-conjugating enzyme UbcH10 C114S (Homo sapiens; C114S)
pKa (Cys102): 10.9
